Source: the supplement of paper PMC10201428
± gives the standard deviation of the averaged measurements.

Tests used:
[1] = test system: VchCAST RNA-guided transposition machinery (E. coli BL21(DE3) host, lacZ target); test: relative integration efficiency (T-RL orientation) vs wild-type transposon end (log2 (normalized fold change)); transposon end mutated: right end (5 bp flank + 75 bp right end); higher = more efficient transposition
Method in brief: (§1)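 Barcode abundances in input plasmids and in genomic integration junctions were obtained by PCR amplification and Illumina sequencing. These came from E. coli BL21(DE3) co-transformed with a T7-driven effector plasmid and a pUC57 donor carrying 1549 left-end or 1849 right-end transposon variants, then plated with 0.1 mM IPTG at 37°C for 18 h. Relative integration efficiency is the output/input fold change, normalised to reference barcodes and log-transformed.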

[2] = test system: VchCAST RNA-guided transposition machinery (E. coli BL21(DE3) host, lacZ target); test: relative integration efficiency (T-LR orientation) vs wild-type transposon end (log2 (normalized fold change)); transposon end mutated: right end (5 bp flank + 75 bp right end); higher = more efficient transposition
Method in brief: as §1

Sequence	relative integration efficiency (log2) [1]	relative integration efficiency (log2) [2]
ACATTTGTTGATACAACCATAAAATGATAATTACCAAAATAAATTGATAATTATCACACCCATAAATTGATATTGCCTCTGATCATAGTCAGACCAACATTGCTACGACCCGTATTCGCACCGACAC	-0.773 ± 0.1	-1.47 ± 0.039
ACATTTGTTGATACAACCATAAAATGATAATTACACCCATAAATTGATAATTATCACACCCATAAATTTCGCGGTAAGAGGATCATAGTCAGACCAACATTGCTACGACCCGTATTCGCACCGACAC	-0.719 ± 0.14	2.22 ± 0.05
ACATTTGTTGATACAACCATAAAATCATCATTCACCCATAAATTGATAATTATCACACCCACATTTAACTATAACGCTCTGATCATAGTCAGACCAACATTGCTACGACCCGTATTCGCACCGACAC	-5.68 ± 0.095	-1.73 ± 0.67
ACATTTGTTGATACAACCATAAAATGATAATTACACCCATAAATTGATAATTATCACACCCATAAATTGATATTGCCTCTGATCATAGCGTACTAGTTAACTAGTTCGAGTCAGACCGCACCGACAC	-0.142 ± 0.091	-0.453 ± 0.046
ACATTTGTTGATACAACCATAAAATGATAATTACACCCATAAATTGATAATTATCACACCCATAAATTGATATTGCCTCTCCGACCCGGAAGAGGGCGCCTAGAATTGGGAGTGGTCGCACCGACAC	0.139 ± 0.13	0.134 ± 0.075
ACATTTGCTGATACTACCATATAATGATAATAACACCCATAAAATGATAATTATCACACCCAATTTAACTATAACGCTCTGATCATAGTCAGACCAACATTGCTACGACCCGTATTCGCACCGACAC	-2.27 ± 0.43	-0.422 ± 0.19
ACATTTGTTGATACAACCATAAAATGATAATTACACCCATTAATTGATAATAATGACACCGAATTTAACTATAACGCTCTGATCATAGTCAGACCAACATTGCTACGACCCGTATTCGCACCGACAC	-1.51 ± 0.32	2.24 ± 0.16
ACATTTGTTGATACAACCATAAAATGATTTTTACACCCATAAATTGATAATTATCACACCCATAAATTGATATTGCCTCTGATCATAGTCAGACCAACATTGCTACGACCCGTATTCGCACCGACAC	-0.483 ± 0.081	0.183 ± 0.26
ACATTTGTGGATACAACCATAAAATGATAATTACACCCATAAATGGATAATTATCACCCCCAATTTAACTATAACGCTCTGATCATAGTCAGACCAACATTGCTACGACCCGTATTCGCACCGACAC	-1.15 ± 0.23	1.55 ± 0.31
ACATTTGTTGATACACCCATAAATTGATATTGCCACCCATAAATTGATATTGCTCACAACCATAAAATGATAATTACTCTGATCATAGTCAGACCAACATTGCTACGACCCGTATTCGCACCGACAC	-0.874 ± 0.16	-0.156 ± 0.22
ACATTTGTTGATAAAACCATAAAATGATTATTACACCCATAAATTGATAATTATCACACCCATAAATTGATATTGCCTCTGATCATAGTCAGACCAACATTGCTACGACCCGTATTCGCACCGACAC	-1.05 ± 0.087	-0.755 ± 0.22
ACATTTGTTGATACACCCATAAATTGATAATTACAACCATATATTGATATCTCTCACAACCATATATTGATATCTCCTCTGATCATAGTCAGACCAACATTGCTACGACCCGTATTCGCACCGACAC	-0.949 ± 0.26	0.0245 ± 0.11
ACATTTGTTGATACAACCATAAAATCTTAATTACACCCATAAATTGATAATTATCACACCCATAAATTGATATTGCCTCTGATCATAGTCAGACCAACATTGCTACGACCCGTATTCGCACCGACAC	-1.973 ± 0.011	-1.09 ± 0.22
ACATTTGTTGATACAACCATCAAATGGTAATTACACCCATAAATTGATAATTATCACACCCAATTTAACTATAACGCTCTGATCATAGTCAGACCAACATTGCTACGACCCGTATTCGCACCGACAC	-0.349 ± 0.42	2.24 ± 0.09
ACATTTGTTGATACAACCATAAAATGATAATTAATAATTATTTATAATCAGCAACTTAACCCACCCATAAATTGATAATTATCAACAAACGCCCGGTCGCGGTACTCTGATCATAGTCAGACCAACA	-2.76 ± 0.67	0.743 ± 0.49
ACATTTGTTGATACAACCATAAAATGATAATTACACCCATAAATTGATCCGGCGACACAAACGCCCGGTCGCGGTAAGAGGATCATAGTCAGACCAACATTGCTACGACCCGTATTCGCACCGACAC	-0.942 ± 0.11	2.09 ± 0.1
ACATTTGTTGATACAACCATAAAATGATAATTACACCCATAAATTGATAATTATCAACACCCATAAATTGATATTGCCTCTGATCATAGTCAGACCAACATTGCTACGACCCGTATTCGCACCGACA	-0.35 ± 0.052	0.619 ± 0.036
ACATTTGTTGATACAACCATAAAATGATAATTAATAATTATTTCACCCATAAATTGATAATTATCACACCCATAAATTGATATTGCCTCTGATCATAGTCAGACCAACATTGCTACGACCCGTATTC	-3.8 ± 0.49	-2.62 ± 1.1

Sequence	relative integration efficiency (log2) [1]	relative integration efficiency (log2) [2]
CAATTTGTTGATACAACCATAAAATGATAATTACACCCATAAATTGATAATTATCACACCCATAAATTGATATTGCCTCTGATCATAGTCAGACCAACATTGCTACGACCCGTATTCGCACCGACAC	-0.1076 ± 0.00032	0.164 ± 0.0064
ACATTTGTTGATACTTCCATAAAATGATAATTACACCCATAAATTGATAATTATCACACCCATAAATTGATATTGCCTCTGATCATAGTCAGACCAACATTGCTACGACCCGTATTCGCACCGACAC	-0.637 ± 0.052	-0.525 ± 0.042
ACATTTGTTGATACAACCATATATTGATATCTCCACCCATAAATTGATATTGCTCACACCCATAAATTGATAATTACTCTGATCATAGTCAGACCAACATTGCTACGACCCGTATTCGCACCGACAC	-0.617 ± 0.12	0.429 ± 0.13
ACATTTGTTGATACAACCATAAAATGATAATTACTCTGATCATAGTCAGACCAACATTGCTACGACCCGTATTCACCCATAAATTGATAATTATCACACCCATAAATTGATATTGCCGCACCGACAC	-3.12 ± 0.47	0.261 ± 0.085
ACATTTGTTGATACAACCATAAAATGATAAAAACACCCATAAATTGATAATTATCACACCCATAAATTGATATTGCCTCTGATCATAGTCAGACCAACATTGCTACGACCCGTATTCGCACCGACAC	-0.347 ± 0.089	-0.253 ± 0.4
ACATTTGTTGATACAACCATAAAACGATAATTACACCCATAAATTCATAATTATCACACCCAATTTAACTATAACGCTCTGATCATAGTCAGACCAACATTGCTACGACCCGTATTCGCACCGACAC	-2.21 ± 0.42	1.3 ± 0.2
ACATTTGTTGATACAACCATAAAATGATAATTACACCCATAAATTGATATAATTCACACCCATAAATTGATATTGCCTCTGATCATAGTCAGACCAACATTGCTACGACCCGTATTCGCACCGACAC	-0.233 ± 0.14	0.18 ± 0.19
ACATTTGTTGATACAACCATAAAATGATAATTACCACCCCTAAATTGATAATTATCACACCCATTTAACTATAACGCTCTGATCATAGTCAGACCAACATTGCTACGACCCGTATTCGCACCGACAC	-3.13 ± 0.18	-0.321 ± 0.18
ACATTTGTTGATACCCCCATAAAATGATAATTACACCCATAAATTGATAATTATCACACCCATAAATTGATATTGCCTCTGATCATAGTCAGACCAACATTGCTACGACCCGTATTCGCACCGACAC	-0.828 ± 0.081	-0.879 ± 0.24
ACATTTGTTGATACAACCATAAAGTGATATTTACAACCATAAGTTGATATTTTTCAGTGGGTATTTAACTATAACGCTCTGATCATAGTCAGACCAACATTGCTACGACCCGTATTCGCACCGACAC	-0.682 ± 0.18	2.73 ± 0.16
ACATTTGTTGATACAACCATAAAATGATAATTAACACCCATAAATTGATAATTATCAACAAACGCCCGGTCGCGGTACTCTGATCATAGTCAGACCAACATTGCTACGACCCGTATTCGCACCGACA	-0.721 ± 0.29	1.67 ± 0.2
ACATTTGATGATAGAACCATTTAATGATAATAACACCCATAAAATGATAATTATCACACCCAATTTAACTATAACGCTCTGATCATAGTCAGACCAACATTGCTACGACCCGTATTCGCACCGACAC	-2.75 ± 0.52	-0.836 ± 0.44
ACATTTGTTGATACAACCATAAAATGATACTTACACCCATAAATTGATACTTATCACACCCATAAATTGATAGTGCCTCTGATCATAGTCAGACCAACATTGCTACGACCCGTATTCGCACCGACAC	-0.987 ± 0.027	-0.0216 ± 0.18
ACATTTGTTGATACAAGGATAAAATGATAATTACACCCATAAATTGATAATTATCACACCCATAAATTGATATTGCCTCTGATCATAGTCAGACCAACATTGCTACGACCCGTATTCGCACCGACAC	-0.223 ± 0.044	-0.87 ± 0.12
ACATTTGTTGATACAACCATAACATGATAATTACACCCATAACTTGATAATTATCACACCCATAACTTGATATTGCCTCTGATCATAGTCAGACCAACATTGCTACGACCCGTATTCGCACCGACAC	-0.3313 ± 0.00055	-0.127 ± 0.35
ACATTTGTTGATACAACCATAAAATGATAATTACACCCATAAATTTCGCCGGCGACACAAACGCCCGGTCGCGGTAAGAGGATCATAGTCAGACCAACATTGCTACGACCCGTATTCGCACCGACAC	-2.05 ± 0.15	0.788 ± 0.1
ACATTTGTTGATACAACCATAAGTTGATATTTTCAACCATAAGTTGATATTTTTCACAACCATAAAATGATAATTACTCTGATCATAGTCAGACCAACATTGCTACGACCCGTATTCGCACCGACAC	0.228 ± 0.008	-0.0651 ± 0.34
